In FireProtDB (doi:10.1021/bi010565n):

B1: Guanyl-specific ribonuclease T1, P00651 (parent)
chain: MMYSKLLTLTTLLLPTALALPSLVERACDYTCGSNCYSSSDVSTAQAAGYQLHEDGETVGSNSYPHKYNNYEGFDFSVSSPYYEWPILSSGDVYSGGSPGADRVVFNENNQLAGVITHTGASGNNFVECT

Variants of: B1
Settings: Aspergillus oryzae (strain ATCC 42149 / RIB 40); pH 7; 25 °C; Thermal; DSC; MOPS 30 mM; reversible: yes(1.03); structure 1RN1; whole UniProt chain shown

Variant | ddG of mutation (higher = less stable) | heat capacity change of unfolding
MMYSKLLTLTTLLLPTALALPSLVERACDYTCGSNCYSSSDSSTAQAAGYQLHEDGETVGSNSYPHKYNNYEGFDFSVSSPYYEWPILSSGDVYSGGSPGADRVVFNENNQLAGVITHTGASGNNFVECT [V42S] | 4.71 kcal/mol | 1.29 kcal/mol/K

Same assay, conditions: Aspergillus oryzae (strain ATCC 42149 / RIB 40); pH 7; 25 °C; Urea; CD; MOPS 30 mM; reversible: yes(1.03); structure 1RN1; whole UniProt chain shown

Variant | ddG of mutation (higher = less stable)
MMYSKLLTLTTLLLPTALALPSLVERACDYTCGSNCYSSSDSSTAQAAGYQLHEDGETVGSNSYPHKYNNYEGFDFSVSSPYYEWPILSSGDVYSGGSPGADRVVFNENNQLAGVITHTGASGNNFVECT [V42S] | 4.66 kcal/mol

Same assay, conditions: Aspergillus oryzae (strain ATCC 42149 / RIB 40); pH 7; Thermal; CD; MOPS 30 mM; reversible: yes(1.03); structure 1RN1; whole UniProt chain shown

Variant | Tm | change of melting temperature, mutant - wild type (higher = more stable)
MMYSKLLTLTTLLLPTALALPSLVERACDYTCGSNCYSSSDSSTAQAAGYQLHEDGETVGSNSYPHKYNNYEGFDFSVSSPYYEWPILSSGDVYSGGSPGADRVVFNENNQLAGVITHTGASGNNFVECT [V42S] | 35.6 °C | -15.6 °C

Same assay, conditions: Aspergillus oryzae (strain ATCC 42149 / RIB 40); pH 7; Thermal; DSC; MOPS 30 mM; reversible: yes(1.03); structure 1RN1; whole UniProt chain shown

Variant | Tm | change of melting temperature, mutant - wild type (higher = more stable)
MMYSKLLTLTTLLLPTALALPSLVERACDYTCGSNCYSSSDSSTAQAAGYQLHEDGETVGSNSYPHKYNNYEGFDFSVSSPYYEWPILSSGDVYSGGSPGADRVVFNENNQLAGVITHTGASGNNFVECT [V42S] | 36.9 °C | -14.6 °C

Same assay, conditions: Aspergillus oryzae (strain ATCC 42149 / RIB 40); pH 7; 25 °C; Thermal; DSC; MOPS 30 mM; reversible: yes(0.98); structure 1RN1; whole UniProt chain shown

Variant | ddG of mutation (higher = less stable) | heat capacity change of unfolding
MMYSKLLTLTTLLLPTALALPSLVERACDYTCGSNCYSSSDASTAQAAGYQLHEDGETVGSNSYPHKYNNYEGFDFSVSSPYYEWPILSSGDVYSGGSPGADRVVFNENNQLAGVITHTGASGNNFVECT [V42A] | 2.19 kcal/mol | 1.29 kcal/mol/K

Same assay, conditions: Aspergillus oryzae (strain ATCC 42149 / RIB 40); pH 7; Thermal; CD; MOPS 30 mM; reversible: yes(0.98); structure 1RN1; whole UniProt chain shown

Variant | Tm | change of melting temperature, mutant - wild type (higher = more stable)
MMYSKLLTLTTLLLPTALALPSLVERACDYTCGSNCYSSSDASTAQAAGYQLHEDGETVGSNSYPHKYNNYEGFDFSVSSPYYEWPILSSGDVYSGGSPGADRVVFNENNQLAGVITHTGASGNNFVECT [V42A] | 43 °C | -8.2 °C

Same assay, conditions: Aspergillus oryzae (strain ATCC 42149 / RIB 40); pH 7; Thermal; DSC; MOPS 30 mM; reversible: yes(0.98); structure 1RN1; whole UniProt chain shown

Variant | Tm | change of melting temperature, mutant - wild type (higher = more stable)
MMYSKLLTLTTLLLPTALALPSLVERACDYTCGSNCYSSSDASTAQAAGYQLHEDGETVGSNSYPHKYNNYEGFDFSVSSPYYEWPILSSGDVYSGGSPGADRVVFNENNQLAGVITHTGASGNNFVECT [V42A] | 44.5 °C | -7 °C

Same assay, conditions: Aspergillus oryzae (strain ATCC 42149 / RIB 40); pH 7; 25 °C; Thermal; DSC; MOPS 30 mM; reversible: yes(1.04); structure 1RN1; whole UniProt chain shown

Variant | ddG of mutation (higher = less stable) | heat capacity change of unfolding
MMYSKLLTLTTLLLPTALALPSLVERACDYTCGSNCYSSSDTSTAQAAGYQLHEDGETVGSNSYPHKYNNYEGFDFSVSSPYYEWPILSSGDVYSGGSPGADRVVFNENNQLAGVITHTGASGNNFVECT [V42T] | 4.1 kcal/mol | 1.29 kcal/mol/K

Same assay, conditions: Aspergillus oryzae (strain ATCC 42149 / RIB 40); pH 7; 25 °C; Urea; CD; MOPS 30 mM; reversible: yes(1.04); structure 1RN1; whole UniProt chain shown

Variant | ddG of mutation (higher = less stable)
MMYSKLLTLTTLLLPTALALPSLVERACDYTCGSNCYSSSDTSTAQAAGYQLHEDGETVGSNSYPHKYNNYEGFDFSVSSPYYEWPILSSGDVYSGGSPGADRVVFNENNQLAGVITHTGASGNNFVECT [V42T] | 3.2 kcal/mol

Same assay, conditions: Aspergillus oryzae (strain ATCC 42149 / RIB 40); pH 7; Thermal; DSC; MOPS 30 mM; reversible: yes(1.04); structure 1RN1; whole UniProt chain shown

Variant | Tm | change of melting temperature, mutant - wild type (higher = more stable)
MMYSKLLTLTTLLLPTALALPSLVERACDYTCGSNCYSSSDTSTAQAAGYQLHEDGETVGSNSYPHKYNNYEGFDFSVSSPYYEWPILSSGDVYSGGSPGADRVVFNENNQLAGVITHTGASGNNFVECT [V42T] | 42.1 °C | -9.4 °C

Same assay, conditions: Aspergillus oryzae (strain ATCC 42149 / RIB 40); pH 7; 25 °C; Urea; CD; MOPS 30 mM; structure 1RN1; whole UniProt chain shown

Variant | ddG of mutation (higher = less stable)
MMYSKLLTLTTLLLPTALALPSLVERACDYTCGSNCYSSSDVSTAQAAGYQLHEDGETVGSNSYPHKYNNYEGFDFSVSSPYYEWPILSSGDVYSGGSPGADRVVFNENNQLAGSITHTGASGNNFVECT [V115S] | 4.87 kcal/mol
MMYSKLLTLTTLLLPTALALPSLVERACDYTCGSNCYSSSDVSTAQAAGYQLHEDGETVGSNSYPHKYNNYEGFDFSVSSPYYEWPILSSGDVYSGGSPGADRVVFNENNQLAGTITHTGASGNNFVECT [V115T] | 3.07 kcal/mol
MMYSKLLTLTTLLLPTALALPSLVERACDYTCGSNCYSSSDVSTAQAAGYQLHEDGETVGSNSYPHKYNNYEGFDFSVSSPYYEWPILSSGDVYSGGSPGADRVVFNENNQLAGCITHTGASGNNFVECT [V115C] | 3.54 kcal/mol

Same assay, conditions: Aspergillus oryzae (strain ATCC 42149 / RIB 40); pH 7; Thermal; CD; MOPS 30 mM; structure 1RN1; whole UniProt chain shown

Variant | Tm | change of melting temperature, mutant - wild type (higher = more stable)
MMYSKLLTLTTLLLPTALALPSLVERACDYTCGSNCYSSSDVSTAQAAGYQLHEDGETVGSNSYPHKYNNYEGFDFSVSSPYYEWPILSSGDVYSGGSPGADRVVFNENNQLAGSITHTGASGNNFVECT [V115S] | 29.6 °C | -21.6 °C
MMYSKLLTLTTLLLPTALALPSLVERACDYTCGSNCYSSSDVSTAQAAGYQLHEDGETVGSNSYPHKYNNYEGFDFSVSSPYYEWPILSSGDVYSGGSPGADRVVFNENNQLAGTITHTGASGNNFVECT [V115T] | 38 °C | -13.2 °C
MMYSKLLTLTTLLLPTALALPSLVERACDYTCGSNCYSSSDVSTAQAAGYQLHEDGETVGSNSYPHKYNNYEGFDFSVSSPYYEWPILSSGDVYSGGSPGADRVVFNENNQLAGCITHTGASGNNFVECT [V115C] | 46.3 °C | -4.9 °C
